Where no end group is shown, it is not given here.

We go through 20 molecules from US20250163145A1 (SHIONOGI, published 2025).

The target of the experiment is T1, epitope peptide Cys-CE3C long (also: biotin label, site not given here).
T1 peptide: CSVNVDKQPKYEYSL
As to the kind of experiment: competitive ELISA, unlabeled vs biotin-labeled peptide, antibody on anti-human IgG plate. The procedure:
A diluted solution of the obtained recombinant humanized antibody, a biotin-labeled immunogen peptide, and Streptavidin-HRP (manufactured by PIERCE) were added to an anti-human IgG antibody-immobilized plate, and reacted overnight at 4° C. […] Next, a recombinant human antibody at the dilution rate, a biotin-labeled immunogen peptide, and Streptavidin-HRP (manufactured by PIERCE) were added. At the same time, a dilution series of unlabeled immunogenic peptide was added and reacted overnight at 4° C. After washing twice with ELISA wash buffer, TMB-Substrate Chromogen (manufactured by Thermo Fisher Scientific) was added to develop color, the reaction was stopped with an equal amount of 0.5N sulfuric acid, and the absorbance at 450 nm was measured. The concentration of the unlabeled peptide which attenuated the signal of the biotin-labeled peptide by half was defined as the affinity (IC50).

B1: humanized antibody h15H11 (IGHV7-4-1 Q43R, G44S, R94P / IGKV7-3 Y36F, V78M) (antibody, human IgG4 S228P, kappa, V domains shown)
VH: QVQLVQSGSELKKPGASVKVSCKASGYTFTDYNMHWVRQAPGRSLEWMGRINPKNGVINSNEKFKDRFVFSLDTSVSTAYLQISSLKAEDTAVYYCAPSYYGGNTDAYWGQGTLVTVSS
VL: DIVLTQSPASLAVSPGQRATITCRASESVDNYGISFMNWFQQKPGQPPKLLIYAASSQGSGVPARFSGSGSGTDFTLTINPMEANDTANYYCQQSKEFPWTFGGGTKVEIKR
notes: hIgG4Pro/hIgK; also called h15H11-WT; h15H11-wt
B1: the concentration for half-maximal inhibition (IC50) came out at 1.44 nM.

B2: h15H11-8 (antibody, human IgG4 S228P, kappa, V domains shown)
VH: QVQLVQSGSELKKPGASVKVSCKASGYTFTDYNMHWVRQAPGRSLEWMGRINPKNGVILSNEKFKDRFVFSLDTSVSTAYLQISSLKAEDTAVYYCAPSYYGGNDDAYWGQGTLVTVSS
VL: DIVLTQSPASLAVSPGQRATITCRASESVDNYGISFMNWFQQKPGQPPKLLIYAASSQGSGVPARFSGSGSGTDFTLTINPMEANDTANYYCQQSKEFPWTFGGGTKVEIKR
notes: hIgG4Pro/hIgK
On to B2, for which the IC50 amounted to 0.6 nM.

B3: h15H11-1 (antibody, human IgG4 S228P, kappa, V domains shown)
VH: QVQLVQSGSELKKPGASVKVSCKASGYTFTEYNMHWVRQAPGRSLEWMGRINPKNGVILSNEKFKDRFVFSLDTSVSTAYLQISSLKAEDTAVYYCAPSYYGGDDDAYWGQGTLVTVSS
VL: DIVLTQSPASLAVSPGQRATITCRASDSVDNYGISFLNWFQQKPGQPPKLLIYAASSQGSGVPARFSGSGSGTDFTLTINPMEANDTANYYCQQSKEFPWTFGGGTKVEIKR
notes: hIgG4Pro/hIgK
Take B3: the IC50 turned out to be 0.47 nM.

B4: h15H11-18 (antibody, human IgG4 S228P, kappa, V domains shown)
VH: QVQLVQSGSELKKPGASVKVSCKASGYTFTDYNMHWVRQAPGRSLEWMGRINPKNGVINSNEKFKDRFVFSLDTSVSTAYLQISSLKAEDTAVYYCAPSYYGGNDDAYWGQGTLVTVSS
VL: DIVLTQSPASLAVSPGQRATITCRVSDSVDNYGISFLNWFQQKPGQPPKLLIYAASSQGSGVPARFSGSGSGTDFTLTINPMEANDTANYYCQQSKEFPWTFGGGTKVEIKR
notes: hIgG4Pro/hIgK
B4 yielded an IC50 of 0.74 nM.

B5: h15H11-17 (antibody, human IgG4 S228P, kappa, V domains shown)
VH: QVQLVQSGSELKKPGASVKVSCKASGYTFTDYNMHWVRQAPGRSLEWMGRINPKNGVINSNEKFKDRFVFSLDTSVSTAYLQISSLKAEDTAVYYCAPSYYGGNDDAYWGQGTLVTVSS
VL: DIVLTQSPASLAVSPGQRATITCRASDSVDNYGISFLNWFQQKPGQPPKLLIYAASSQGSGVPARFSGSGSGTDFTLTINPMEANDTANYYCQQSKEFPWTFGGGTKVEIKR
notes: hIgG4Pro/hIgK
As to B5, the IC50 came to 0.7 nM.

B6: h15H11-3 (antibody, human IgG4 S228P, kappa, V domains shown)
VH: QVQLVQSGSELKKPGASVKVSCKASGYTFTEYNMHWVRQAPGRSLEWMGRINPKNGVILSNEKFKDRFVFSLDTSVSTAYLQISSLKAEDTAVYYCAPSYYGGDDDAYWGQGTLVTVSS
VL: DIVLTQSPASLAVSPGQRATITCRASESVDNYGISFMNWFQQKPGQPPKLLIYAASSQGSGVPARFSGSGSGTDFTLTINPMEANDTANYYCQQSKEFPWTFGGGTKVEIKR
notes: hIgG4Pro/hIgK
B6 had a 50% inhibitory concentration (IC50) of 0.5 nM.

B7: h15H11-4 (antibody, human IgG4 S228P, kappa, V domains shown)
VH: QVQLVQSGSELKKPGASVKVSCKASGYTFTDYNMHWVRQAPGRSLEWMGRINPKNGVILSNEKFKDRFVFSLDTSVSTAYLQISSLKAEDTAVYYCAPSYYGGDDDAYWGQGTLVTVSS
VL: DIVLTQSPASLAVSPGQRATITCRASESVDNYGISFMNWFQQKPGQPPKLLIYAASSQGSGVPARFSGSGSGTDFTLTINPMEANDTANYYCQQSKEFPWTFGGGTKVEIKR
notes: hIgG4Pro/hIgK
As to B7, the concentration for half-maximal inhibition (IC50) came out at 0.51 nM.

B8: h15H11-13 (antibody, human IgG4 S228P, kappa, V domains shown)
VH: QVQLVQSGSELKKPGASVKVSCKASGYTFTEYNMHWVRQAPGRSLEWMGRINPKNGVINSNEKFKDRFVFSLDTSVSTAYLQISSLKAEDTAVYYCAPSYYGGNDDAYWGQGTLVTVSS
VL: DIVLTQSPASLAVSPGQRATITCRASDSVDNYGISFLNWFQQKPGQPPKLLIYAASSQGSGVPARFSGSGSGTDFTLTINPMEANDTANYYCQQSKEFPWTFGGGTKVEIKR
notes: hIgG4Pro/hIgK
In the case of B8, the IC50 was determined as 0.64 nM.

B9: h15H11-9 (antibody, human IgG4 S228P, kappa, V domains shown)
VH: QVQLVQSGSELKKPGASVKVSCKASGYTFTDYNMHWVRQAPGRSLEWMGRINPKNGVILSNEKFKDRFVFSLDTSVSTAYLQISSLKAEDTAVYYCAPSYYGGNDDAYWGQGTLVTVSS
VL: DIVLTQSPASLAVSPGQRATITCRASDSVDNYGISFLNWFQQKPGQPPKLLIYAASSQGSGVPARFSGSGSGTDFTLTINPMEANDTANYYCQQSKEFPWTFGGGTKVEIKR
notes: hIgG4Pro/hIgK
B9 displayed an IC50 of 0.61 nM.

B10: h15H11-15 (antibody, human IgG4 S228P, kappa, V domains shown)
VH: QVQLVQSGSELKKPGASVKVSCKASGYTFTDYNMHWVRQAPGRSLEWMGRINPKNGVILSNEKFKDRFVFSLDTSVSTAYLQISSLKAEDTAVYYCAPSYYGGDTDAYWGQGTLVTVSS
VL: DIVLTQSPASLAVSPGQRATITCRASESVDNYGISFMNWFQQKPGQPPKLLIYAASSQGSGVPARFSGSGSGTDFTLTINPMEANDTANYYCQQSKEFPWTFGGGTKVEIKR
notes: hIgG4Pro/hIgK
In turn, B10 displayed an IC50 of 0.66 nM.

B11: h15H11-6 (antibody, human IgG4 S228P, kappa, V domains shown)
VH: QVQLVQSGSELKKPGASVKVSCKASGYTFTDYNMHWVRQAPGRSLEWMGRINPKNGVINSNEKFKDRFVFSLDTSVSTAYLQISSLKAEDTAVYYCAPSYYGGDDDAYWGQGTLVTVSS
VL: DIVLTQSPASLAVSPGQRATITCRASDSVDNYGISFLNWFQQKPGQPPKLLIYAASSQGSGVPARFSGSGSGTDFTLTINPMEANDTANYYCQQSKEFPWTFGGGTKVEIKR
notes: hIgG4Pro/hIgK
B11 displayed an IC50 of 0.57 nM.

B12: h15H11-12 (antibody, human IgG4 S228P, kappa, V domains shown)
VH: QVQLVQSGSELKKPGASVKVSCKASGYTFTEYNMHWVRQAPGRSLEWMGRINPKNGVILSNEKFKDRFVFSLDTSVSTAYLQISSLKAEDTAVYYCAPSYYGGDTDAYWGQGTLVTVSS
VL: DIVLTQSPASLAVSPGQRATITCRASESVDNYGISFMNWFQQKPGQPPKLLIYAASSQGSGVPARFSGSGSGTDFTLTINPMEANDTANYYCQQSKEFPWTFGGGTKVEIKR
notes: hIgG4Pro/hIgK
Regarding B12, the IC50 was 0.62 nM.

B13: h15H11-11 (antibody, human IgG4 S228P, kappa, V domains shown)
VH: QVQLVQSGSELKKPGASVKVSCKASGYTFTDYNMHWVRQAPGRSLEWMGRINPKNGVILSNEKFKDRFVFSLDTSVSTAYLQISSLKAEDTAVYYCAPSYYGGDTDAYWGQGTLVTVSS
VL: DIVLTQSPASLAVSPGQRATITCRASDSVDNYGISFLNWFQQKPGQPPKLLIYAASSQGSGVPARFSGSGSGTDFTLTINPMEANDTANYYCQQSKEFPWTFGGGTKVEIKR
notes: hIgG4Pro/hIgK
Take B13: the IC50 amounted to 0.62 nM.

B14: h15H11-7 (antibody, human IgG4 S228P, kappa, V domains shown)
VH: QVQLVQSGSELKKPGASVKVSCKASGYTFTEYNMHWVRQAPGRSLEWMGRINPKNGVILSNEKFKDRFVFSLDTSVSTAYLQISSLKAEDTAVYYCAPSYYGGNDDAYWGQGTLVTVSS
VL: DIVLTQSPASLAVSPGQRATITCRASDSVDNYGISFLNWFQQKPGQPPKLLIYAASSQGSGVPARFSGSGSGTDFTLTINPMEANDTANYYCQQSKEFPWTFGGGTKVEIKR
notes: hIgG4Pro/hIgK
Turning to B14, the IC50 turned out to be 0.58 nM.

B15: h15H11-14 (antibody, human IgG4 S228P, kappa, V domains shown)
VH: QVQLVQSGSELKKPGASVKVSCKASGYTFTDYNMHWVRQAPGRSLEWMGRINPKNGVINSNEKFKDRFVFSLDTSVSTAYLQISSLKAEDTAVYYCAPSYYGGDDDAYWGQGTLVTVSS
VL: DIVLTQSPASLAVSPGQRATITCRASESVDNYGISFMNWFQQKPGQPPKLLIYAASSQGSGVPARFSGSGSGTDFTLTINPMEANDTANYYCQQSKEFPWTFGGGTKVEIKR
notes: hIgG4Pro/hIgK
Consider B15, for which the half-inhibitory concentration (IC50) was 0.66 nM.

B16: h15H11-10 (antibody, human IgG4 S228P, kappa, V domains shown)
VH: QVQLVQSGSELKKPGASVKVSCKASGYTFTEYNMHWVRQAPGRSLEWMGRINPKNGVILSNEKFKDRFVFSLDTSVSTAYLQISSLKAEDTAVYYCAPSYYGGNDDAYWGQGTLVTVSS
VL: DIVLTQSPASLAVSPGQRATITCRASESVDNYGISFMNWFQQKPGQPPKLLIYAASSQGSGVPARFSGSGSGTDFTLTINPMEANDTANYYCQQSKEFPWTFGGGTKVEIKR
notes: hIgG4Pro/hIgK
B16 yielded an IC50 of 0.61 nM.

B17: h15H11-19 (antibody, human IgG4 S228P, kappa, V domains shown)
VH: QVQLVQSGSELKKPGASVKVSCKASGYTFTEYNMHWVRQAPGRSLEWMGRINPKNGVINSNEKFKDRFVFSLDTSVSTAYLQISSLKAEDTAVYYCAPSYYGGDTDAYWGQGTLVTVSS
VL: DIVLTQSPASLAVSPGQRATITCRASDSVDNYGISFLNWFQQKPGQPPKLLIYAASSQGSGVPARFSGSGSGTDFTLTINPMEANDTANYYCQQSKEFPWTFGGGTKVEIKR
notes: hIgG4Pro/hIgK
In turn, B17 returned a half-inhibitory concentration (IC50) of 0.74 nM.

B18: h15H11-16 (antibody, human IgG4 S228P, kappa, V domains shown)
VH: QVQLVQSGSELKKPGASVKVSCKASGYTFTEYNMHWVRQAPGRSLEWMGRINPKNGVINSNEKFKDRFVFSLDTSVSTAYLQISSLKAEDTAVYYCAPSYYGGNDDAYWGQGTLVTVSS
VL: DIVLTQSPASLAVSPGQRATITCRASESVDNYGISFMNWFQQKPGQPPKLLIYAASSQGSGVPARFSGSGSGTDFTLTINPMEANDTANYYCQQSKEFPWTFGGGTKVEIKR
notes: hIgG4Pro/hIgK
Molecule B18 came in with an IC50 of 0.68 nM.

B19: h15H11-2 (antibody, human IgG4 S228P, kappa, V domains shown)
VH: QVQLVQSGSELKKPGASVKVSCKASGYTFTDYNMHWVRQAPGRSLEWMGRINPKNGVILSNEKFKDRFVFSLDTSVSTAYLQISSLKAEDTAVYYCAPSYYGGDDDAYWGQGTLVTVSS
VL: DIVLTQSPASLAVSPGQRATITCRASDSVDNYGISFLNWFQQKPGQPPKLLIYAASSQGSGVPARFSGSGSGTDFTLTINPMEANDTANYYCQQSKEFPWTFGGGTKVEIKR
notes: hIgG4Pro/hIgK
As to B19, the half-inhibitory concentration (IC50) came out at 0.48 nM.

B20: h15H11-5 (antibody, human IgG4 S228P, kappa, V domains shown)
VH: QVQLVQSGSELKKPGASVKVSCKASGYTFTEYNMHWVRQAPGRSLEWMGRINPKNGVILSNEKFKDRFVFSLDTSVSTAYLQISSLKAEDTAVYYCAPSYYGGDTDAYWGQGTLVTVSS
VL: DIVLTQSPASLAVSPGQRATITCRASDSVDNYGISFLNWFQQKPGQPPKLLIYAASSQGSGVPARFSGSGSGTDFTLTINPMEANDTANYYCQQSKEFPWTFGGGTKVEIKR
notes: hIgG4Pro/hIgK
For the molecule B20, the IC50 came out at 0.52 nM.
